The values below come from the supplement of paper PMC11811203.

B1: THAP1; numbered along this chain (parent)
chain: MVQSCSAYGCKNRYDKDKPVSFHKFPLTRPSLCKEWEAAVRRKNFKPTKYSSICSEHFTPDCFKRECNNKLLKENAVPTIFLCTEPHDKKEDLLEPQEQLPPPPLPPPVSQVDAAIGLLMPPLQTPVNLSVFCDHNYTVEDTMHQRKRIHQLEQQVEKLRKKLKTAQQRCRRQERQLEKLKEVVHFQKEKDDVSERGYVILPNDYFEIVEVPA

Variants of B1 are the subject of the data set. Put plainly: THAP1 transcriptional activity (GFP+/GFP- enrichment relative to wild-type constructs) (ratio to WT); higher = more THAP1 activity (PSMB5 reporter activation). The conditions noted are these: with PSMB5 promoter-GFP reporter. Here is the method:
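Deep mutational scan of human THAP1. Site-saturation single amino acid variant library (residues 2-213) was expressed by lentivirus at MOI ~0.3 in THAP1-knockout HEK-293T cells carrying an endogenous PSMB5 promoter-GFP knock-in reporter. Five days post-transduction, BFP+ cells were FACS-sorted into GFP dim and GFP bright populations and variants were counted by Illumina sequencing. Activity is the GFP-bright/GFP-dim read fold change, mean of 2 replicates, divided by the mean fold change of wild-type (synonymous) constructs in the same screen pool; WT = 1.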
In the case of MVQSCSAYGCKNRYDKDKPVSFHKFPLTRPSLCKEWEAAVRRKNFKPTKYSSICSEHRTPDCFKRECNNKLLKENAVPTIFLCTEPHDKKEDLLEPQEQLPPPPLPPPVSQVDAAIGLLMPPLQTPVNLSVFCDHNYTVEDTMHQRKRIHQLEQQVEKLRKKLKTAQQRCRRQERQLEKLKEVVHFQKEKDDVSERGYVILPNDYFEIVEVPA [F58R], the THAP1 transcriptional activity is 0.046.
For the variant MVQSCSAYGCKNRYDKDKPVSFHKFPLTRPSLCKEWEAAVRRKNFKPTKYSSICSEHYTPDCFKRECNNKLLKENAVPTIFLCTEPHDKKEDLLEPQEQLPPPPLPPPVSQVDAAIGLLMPPLQTPVNLSVFCDHNYTVEDTMHQRKRIHQLEQQVEKLRKKLKTAQQRCRRQERQLEKLKEVVHFQKEKDDVSERGYVILPNDYFEIVEVPA [F58Y], the THAP1 transcriptional activity was found to be 0.153.
The figure for MVQSCSAYGCKNRYDKDKPVSFHKFPLTRPSLCKEWEAAVRRKNFKPTKYSSICSEHSTPDCFKRECNNKLLKENAVPTIFLCTEPHDKKEDLLEPQEQLPPPPLPPPVSQVDAAIGLLMPPLQTPVNLSVFCDHNYTVEDTMHQRKRIHQLEQQVEKLRKKLKTAQQRCRRQERQLEKLKEVVHFQKEKDDVSERGYVILPNDYFEIVEVPA [F58S] is 0.0937.
Under MVQSCSAYGCKNRYDKDKPVSFHKFPLTRPSLCKEWEAAVRRKNFKPTKYSSICSEHTTPDCFKRECNNKLLKENAVPTIFLCTEPHDKKEDLLEPQEQLPPPPLPPPVSQVDAAIGLLMPPLQTPVNLSVFCDHNYTVEDTMHQRKRIHQLEQQVEKLRKKLKTAQQRCRRQERQLEKLKEVVHFQKEKDDVSERGYVILPNDYFEIVEVPA [F58T] stands 0.0696.
The figure for MVQSCSAYGCKNRYDKDKPVSFHKFPLTRPSLCKEWEAAVRRKNFKPTKYSSICSEHWTPDCFKRECNNKLLKENAVPTIFLCTEPHDKKEDLLEPQEQLPPPPLPPPVSQVDAAIGLLMPPLQTPVNLSVFCDHNYTVEDTMHQRKRIHQLEQQVEKLRKKLKTAQQRCRRQERQLEKLKEVVHFQKEKDDVSERGYVILPNDYFEIVEVPA [F58W] is 0.143.
For MVQSCSAYGCKNRYDKDKPVSFHKFPLTRPSLCKEWEAAVRRKNFKPTKYSSICSEHVTPDCFKRECNNKLLKENAVPTIFLCTEPHDKKEDLLEPQEQLPPPPLPPPVSQVDAAIGLLMPPLQTPVNLSVFCDHNYTVEDTMHQRKRIHQLEQQVEKLRKKLKTAQQRCRRQERQLEKLKEVVHFQKEKDDVSERGYVILPNDYFEIVEVPA [F58V], the THAP1 transcriptional activity amounted to 0.115.
Under MVQSCSAYGCKNRYDKDKPVSFHKFPLTRPSLCKEWEAAVRRKNFKPTKYSSICSEHFPPDCFKRECNNKLLKENAVPTIFLCTEPHDKKEDLLEPQEQLPPPPLPPPVSQVDAAIGLLMPPLQTPVNLSVFCDHNYTVEDTMHQRKRIHQLEQQVEKLRKKLKTAQQRCRRQERQLEKLKEVVHFQKEKDDVSERGYVILPNDYFEIVEVPA [T59P] stands 0.248; under MVQSCSAYGCKNRYDKDKPVSFHKFPLTRPSLCKEWEAAVRRKNFKPTKYSSICSEHFMPDCFKRECNNKLLKENAVPTIFLCTEPHDKKEDLLEPQEQLPPPPLPPPVSQVDAAIGLLMPPLQTPVNLSVFCDHNYTVEDTMHQRKRIHQLEQQVEKLRKKLKTAQQRCRRQERQLEKLKEVVHFQKEKDDVSERGYVILPNDYFEIVEVPA [T59M], 0.544; under MVQSCSAYGCKNRYDKDKPVSFHKFPLTRPSLCKEWEAAVRRKNFKPTKYSSICSEHFVPDCFKRECNNKLLKENAVPTIFLCTEPHDKKEDLLEPQEQLPPPPLPPPVSQVDAAIGLLMPPLQTPVNLSVFCDHNYTVEDTMHQRKRIHQLEQQVEKLRKKLKTAQQRCRRQERQLEKLKEVVHFQKEKDDVSERGYVILPNDYFEIVEVPA [T59V], 0.269.
Under MVQSCSAYGCKNRYDKDKPVSFHKFPLTRPSLCKEWEAAVRRKNFKPTKYSSICSEHFRPDCFKRECNNKLLKENAVPTIFLCTEPHDKKEDLLEPQEQLPPPPLPPPVSQVDAAIGLLMPPLQTPVNLSVFCDHNYTVEDTMHQRKRIHQLEQQVEKLRKKLKTAQQRCRRQERQLEKLKEVVHFQKEKDDVSERGYVILPNDYFEIVEVPA [T59R] stands 0.426; under MVQSCSAYGCKNRYDKDKPVSFHKFPLTRPSLCKEWEAAVRRKNFKPTKYSSICSEHFEPDCFKRECNNKLLKENAVPTIFLCTEPHDKKEDLLEPQEQLPPPPLPPPVSQVDAAIGLLMPPLQTPVNLSVFCDHNYTVEDTMHQRKRIHQLEQQVEKLRKKLKTAQQRCRRQERQLEKLKEVVHFQKEKDDVSERGYVILPNDYFEIVEVPA [T59E], 1.07; under MVQSCSAYGCKNRYDKDKPVSFHKFPLTRPSLCKEWEAAVRRKNFKPTKYSSICSEHFHPDCFKRECNNKLLKENAVPTIFLCTEPHDKKEDLLEPQEQLPPPPLPPPVSQVDAAIGLLMPPLQTPVNLSVFCDHNYTVEDTMHQRKRIHQLEQQVEKLRKKLKTAQQRCRRQERQLEKLKEVVHFQKEKDDVSERGYVILPNDYFEIVEVPA [T59H], 0.511.
Consider MVQSCSAYGCKNRYDKDKPVSFHKFPLTRPSLCKEWEAAVRRKNFKPTKYSSICSEHFLPDCFKRECNNKLLKENAVPTIFLCTEPHDKKEDLLEPQEQLPPPPLPPPVSQVDAAIGLLMPPLQTPVNLSVFCDHNYTVEDTMHQRKRIHQLEQQVEKLRKKLKTAQQRCRRQERQLEKLKEVVHFQKEKDDVSERGYVILPNDYFEIVEVPA [T59L], for which the THAP1 transcriptional activity amounted to 0.372.
The figure for MVQSCSAYGCKNRYDKDKPVSFHKFPLTRPSLCKEWEAAVRRKNFKPTKYSSICSEHFYPDCFKRECNNKLLKENAVPTIFLCTEPHDKKEDLLEPQEQLPPPPLPPPVSQVDAAIGLLMPPLQTPVNLSVFCDHNYTVEDTMHQRKRIHQLEQQVEKLRKKLKTAQQRCRRQERQLEKLKEVVHFQKEKDDVSERGYVILPNDYFEIVEVPA [T59Y] is 0.0936.
